Experimental data taken from patent US20240247080A1, “GLP1/GIP/NPY2 RECEPTOR TRIPLE AGONISTS” (Boehringer Ingelheim International GmbH, priority 2022, published 2024).
Residue numbers refer to the chain shown, from its start. One block for each binder: values may come before it. Starred links: 1 amine or outer side, 2 acyl side, 3 side chain; linkers in the order of their positions; H or OH if unused. Non-standard residues stand in square brackets, D forms with d. Groups on a side chain read outwards from the residue. No end group written: not given here. *: point of attachment. C20 diacid = O=C(O)CCCCCCCCCCCCCCCCCCC(=O)*; C18 diacid = O=C(O)CCCCCCCCCCCCCCCCC(=O)*; γGlu = O=C(O)[C@H](CCC(=O)[*:2])N[*:1]; AEEA = NCCOCCOCC(=O)O; Aib = CC(C)(N)C(=O)O

Tests used:
Experiment in all cases: cell-based or functional assay
[1] = target: T1, human neuropeptide Y2 receptor (human, UniProt P49146 1-381)
T1 sequence (looked up): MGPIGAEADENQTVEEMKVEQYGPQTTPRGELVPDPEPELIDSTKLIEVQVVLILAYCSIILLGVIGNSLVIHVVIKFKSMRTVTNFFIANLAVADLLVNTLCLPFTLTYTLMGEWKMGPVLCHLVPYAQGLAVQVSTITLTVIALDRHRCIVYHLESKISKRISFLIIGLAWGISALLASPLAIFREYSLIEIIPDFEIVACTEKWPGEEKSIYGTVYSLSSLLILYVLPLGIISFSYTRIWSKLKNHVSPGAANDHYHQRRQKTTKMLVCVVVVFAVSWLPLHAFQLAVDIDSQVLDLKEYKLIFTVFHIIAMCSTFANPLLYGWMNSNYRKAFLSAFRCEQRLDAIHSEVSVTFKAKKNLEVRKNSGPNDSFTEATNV

[2] = target: human GLP-1 receptor (human, UniProt P43220 24-463)
[3] = target: T2, human GIP receptor (human, UniProt P48546 22-466)
T2 sequence (looked up): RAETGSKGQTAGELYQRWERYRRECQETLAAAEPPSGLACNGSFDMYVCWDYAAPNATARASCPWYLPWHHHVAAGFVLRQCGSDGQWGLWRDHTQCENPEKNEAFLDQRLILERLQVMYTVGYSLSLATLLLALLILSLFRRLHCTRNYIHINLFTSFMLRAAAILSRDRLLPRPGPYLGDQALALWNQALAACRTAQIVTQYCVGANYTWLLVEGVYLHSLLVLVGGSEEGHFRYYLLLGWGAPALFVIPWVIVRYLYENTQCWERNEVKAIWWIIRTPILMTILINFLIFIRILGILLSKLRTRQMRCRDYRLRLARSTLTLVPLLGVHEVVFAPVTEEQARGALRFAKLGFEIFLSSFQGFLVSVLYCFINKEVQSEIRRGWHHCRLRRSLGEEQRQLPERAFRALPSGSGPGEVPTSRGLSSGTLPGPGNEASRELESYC

[4] = target: T3, NPY2 receptor (human (printed as hNPY2R), UniProt P49146 1-381)
T3 sequence (looked up): T1 sequence (looked up)

[5] = target: T4, GIP receptor (human (printed as hGIPR), UniProt P48546 22-466)
T4 sequence (looked up): T2 sequence (looked up)

[6] = target: GLP-1 receptor (human (printed as hGLP1R), UniProt P43220 24-463)

- EC50 CreLuc hNPY2R 0.5% hP [1]: 25.8 nM
- EC50 CreLuc hNPY2R 100% hP [1]: 92.6 nM
- EC50 CreLuc hGLP1R 0.5% hP [2]: 0.2 nM
- EC50 CreLuc hGLP1R 100% hP [2]: 8.2 nM
- EC50 CreLuc hGIPR 0.5% hP [3]: 0.25 nM
- EC50 CreLuc hGIPR 100% hP [3]: 1.61 nM
B1: Compound 162 (peptide)
peptide: YXEGTFTSDYSIXLEKQAQXAFVQWLIKGGPEEGASLRHYYNWLTRQRY
modifications: Aib at 2, 13, 20; K28 side chain: C18DA-gGlu-gGlu-gGlu-gGlu-gGlu-AHX; C-terminal NH2

- EC50 CreLuc hNPY2R 0.5% hP [1]: 10.5 nM
- EC50 CreLuc hNPY2R 100% hP [1]: 26.5 nM
- EC50 CreLuc hGLP1R 0.5% hP [2]: 0.04 nM
- EC50 CreLuc hGLP1R 100% hP [2]: 0.82 nM
- EC50 CreLuc hGIPR 0.5% hP [3]: 0.14 nM
- EC50 CreLuc hGIPR 100% hP [3]: 0.49 nM
B2: Compound 167 (peptide)
peptide: B1 peptide with E32S, E33S
modifications: Aib at 2, 13, 20; K28 side chain: C18DA-gGlu-gGlu-gGlu-gGlu-gGlu-OEG-OEG; C-terminal NH2

- EC50 CreLuc hNPY2R 0.5% hP [1]: 12.5 nM
- EC50 CreLuc hNPY2R 100% hP [1]: 57.9 nM
- EC50 CreLuc hGLP1R 0.5% hP [2]: 0.07 nM
- EC50 CreLuc hGLP1R 100% hP [2]: 4.24 nM
- EC50 CreLuc hGIPR 0.5% hP [3]: 0.08 nM
- EC50 CreLuc hGIPR 100% hP [3]: 0.64 nM
Binder: Y[Aib]EGTFTSDYSI[Aib]LEKQAQ[Aib]AFVEWLIK([AEEA-AEEA-γGlu-γGlu-γGlu-C18 diacid])GGPESGASLRHYYNWLTRQRY-NH2 [Compound 166]

- EC50 CreLuc hNPY2R 0.5% hP [1]: 23.6 nM
- EC50 CreLuc hNPY2R 100% hP [1]: 86.9 nM
- EC50 CreLuc hGLP1R 0.5% hP [2]: 0.35 nM
- EC50 CreLuc hGLP1R 100% hP [2]: 9.05 nM
- EC50 CreLuc hGIPR 0.5% hP [3]: 0.38 nM
- EC50 CreLuc hGIPR 100% hP [3]: 1.58 nM
Binder: Y[Aib]EGTFTSDYSI[Aib]LEKQAQ[Aib]EFVQWLIK([AEEA-AEEA-Glu-Glu-Glu-C18 diacid])GGPSEGASLRHYYNWLTRQRY-NH2 [Compound 157]

- EC50 CreLuc hNPY2R 0.5% hP [1]: 15.8 nM
- EC50 CreLuc hNPY2R 100% hP [1]: 39.9 nM
- EC50 CreLuc hGLP1R 0.5% hP [2]: 0.09 nM
- EC50 CreLuc hGLP1R 100% hP [2]: 3.25 nM
- EC50 CreLuc hGIPR 0.5% hP [3]: 0.11 nM
- EC50 CreLuc hGIPR 100% hP [3]: 0.84 nM
Binder: Y[Aib]EGTFTSDYSI[Aib]LEKQAQ[Aib]AFVEWLIK([AEEA-AEEA-γGlu-γGlu-γGlu-γGlu-C18 diacid])GGPSSPASLRHYYNWLTRQRY-NH2 [Compound 158]

- EC50 CreLuc hNPY2R 0.5% hP [1]: 8.23 nM
- EC50 CreLuc hNPY2R 100% hP [1]: 21.9 nM
- EC50 CreLuc hGLP1R 0.5% hP [2]: 0.3 nM
- EC50 CreLuc hGLP1R 100% hP [2]: 6.31 nM
- EC50 CreLuc hGIPR 0.5% hP [3]: 0.33 nM
- EC50 CreLuc hGIPR 100% hP [3]: 0.91 nM
Binder: Y[Aib]EGTFTSDYSI[Aib]LEKQAQ[Aib]EFVQWLIK([AEEA-AEEA-γGlu-γGlu-γGlu-C18 diacid])GGPSEGASLRHYYNWLTRQRY-NH2 [Compound 160]

- EC50 CreLuc hNPY2R 0.5% hP [1]: 13.5 nM
- EC50 CreLuc hNPY2R 100% hP [1]: 26.5 nM
- EC50 CreLuc hGLP1R 0.5% hP [2]: 0.18 nM
- EC50 CreLuc hGLP1R 100% hP [2]: 6.5 nM
- EC50 CreLuc hGIPR 0.5% hP [3]: 0.16 nM
- EC50 CreLuc hGIPR 100% hP [3]: 0.72 nM
Binder: Y[Aib]EGTFTSDYSI[Aib]LEKQAE[Aib]AFVQWLIK([AEEA-AEEA-γGlu-γGlu-γGlu-γGlu-C18 diacid])GGPSEGASLRHYYNWLTRQRY-NH2 [Compound 156]

- EC50 hNPY2R 0.5% hP (CreLuc) [4]: 13.3 nM
- EC50 hNPY2R 100% hP (CreLuc) [4]: 115 nM
- EC50 hGIPR 0.5% hP (CreLuc) [5]: 0.12 nM
- EC50 hGIPR 100% hP (CreLuc) [5]: 5.86 nM
- EC50 hGLP1R 0.5% hP (CreLuc) [6]: 0.08 nM
- EC50 hGLP1R 100% hP (CreLuc) [6]: 5.51 nM
Binder: Y[Aib]EGTFTSDYSI[Aib]LEKQAQ[Aib]AFVEWLIKGGPSSPASLRHYYNWLTRQRY-NH2 (not fully specified (residue 28); also: TFA salt) [Compound 178]

- EC50 CreLuc hNPY2R 0.5% hP [1]: 8.91 nM
- EC50 CreLuc hNPY2R 100% hP [1]: 36 nM
- EC50 CreLuc hGLP1R 0.5% hP [2]: 0.13 nM
- EC50 CreLuc hGLP1R 100% hP [2]: 4.81 nM
- EC50 CreLuc hGIPR 0.5% hP [3]: 0.33 nM
- EC50 CreLuc hGIPR 100% hP [3]: 1.88 nM
Binder: Y[Aib]EGTFTSDYSI[Aib]LEKQAQ[Aib]AFVQWLIK([AEEA-AEEA-γGlu-γGlu-Glu-γGlu-C20 diacid])GGPSEPASLRHYYNWLTRQRY-NH2 [Compound 165]

- EC50 CreLuc hNPY2R 0.5% hP [1]: 24 nM
- EC50 CreLuc hNPY2R 100% hP [1]: 50.1 nM
- EC50 CreLuc hGLP1R 0.5% hP [2]: 0.28 nM
- EC50 CreLuc hGLP1R 100% hP [2]: 6.48 nM
- EC50 CreLuc hGIPR 0.5% hP [3]: 0.25 nM
- EC50 CreLuc hGIPR 100% hP [3]: 1.26 nM
Binder: Y[Aib]EGTFTSDYSI[Aib]LEKQAQ[Aib]EFVQWLIKGGPSEGASLRHYYNWLTRQRY-NH2 (not fully specified (residue 28)) [Compound 164]
